The assay deals with activated human CD4+ T cells. Kind of assay: Cytokine production (ELISA) by human CD4+ T cells stimulated with anti-CD3/CD28 beads and Delta1 beads, with added soluble protein. Type of assay: cell-based. The conditions noted are these: increasing amounts of soluble protein in culture medium, 3 days. The procedure: M450 Streptavidin Dynabead™ magnetic beads (Dynal, USA) were coated with an anti-human-IgG4 biotinylated monoclonal antibody (BD Bioscience, 555879) by rotating them in the presence of the antibody for 30 minutes at room temperature. Beads were washed three times with PBS (1 ml). They were further incubated with hDelta1-hIgG4 (see Example 1 above) for 2 hours at room temperature and then washed three times with PBS (1 ml).
Human peripheral blood mononuclear cells (PBMC) were purified from blood using Ficoll-Paque separation medium (Pharmacia). Briefly, 28 ml of blood were overlaid on 21 ml of Ficoll-Paque separation medium and centrifuged at 18-20° C. for 40 minutes at 400 g. PBMC were recovered from the interface and washed 3 times before use for CD4+ T cell purification.
The CD4+ T cells were incubated in triplicates in a 96-well-plate (flat bottom) at 10^5 CD4/well/200 μl in RPMI medium containing 10% FCS, glutamine, penicillin, streptomycin and β2-mercaptoethanol.
Cytokine production was induced by stimulating the cells with anti-CD3/CD28 T cell expander beads from Dynal at a 1:1 ratio (bead/cell) in the presence of beads coated with hDelta1-IgG4Fc fusion protein (Example 1 above) at a 5:1 ratio (beads/cell). In some wells, increasing amounts of soluble hdelta1-IgG4Fc fusion protein were also added.
The supernatants were removed after 3 days of incubation at 37° C./5% CO2/humidified atmosphere and cytokine production was evaluated by ELISA using Pharmingen kits OptEIA Set human IL10 (catalog No. 555157), OptEIA Set human IL-5 (catalog No. 555202) for IL-10 and IL-5 respectively according to the manufacturer's instructions.
Human peripheral blood mononuclear cells (PBMC) were purified from blood using Ficoll-Paque separation medium (Pharmacia). […]
The supernatants were removed after 3 days of incubation at 37° C./5% CO2/humidified atmosphere and cytokine production was evaluated by ELISA using Pharmingen kits OptEIA Set human IL10 (Catalog No. 555157), OptEIA Set human IL-5 (Catalog No. 555202) for IL-10 and IL-5 respectively according to the manufacturer's instructions. […]

Consider one molecule from patent publication US20050137130A1, “Medical treatment” (priority 2001, published 2005).

B1: rat Notch1-hIgG1Fc: R&D Systems Catalog No 1057-TK; 12 amino terminal EGF domains of rat Notch-1 fused to the Fc region of human IgG (protein)
chain: ARGLRCSQPSGTCLNGGRCEVANGTEACVCSGAFVGQRCQDPSPCLSTPCKNAGTCYVVDHGGIVDYACSCPLGFSGPLCLTPLANACLANPCRNGGTCDLLTLTEYKCRCPPGWSGKSCQQADPCASNPCANGGQCLPFESSYICGCPPGFHGPTCRQDVNECSQNPGLCRHGGTCHNEIGSYRCACRATHTGPHCELPYVPCSPSPCQNGGTCRPTGDTTHECACLPGFAGQNCEENVDDCPGNNCKNGGACVDGVNTYNCRCPPEWTGQYCTEDVDECQLMPNACQNGGTCHNSHGGYNCVCVNGWTGEDCSENIDDCASAACFQGATCHDRVASFYCECPHGRTGLLCHLNDACISNPCNEGSNCDTNPVNGKAICTCPSGYTGPACSQDVDECALGANPCEHAGKCLNTLGSFECQCLQGYTGPRCEIDVNECISNPCQNDATCLDQIGEFQCICMPGYEGVYCEIEGRMD
modifications: left off: a dimerising Fc or GST
notes: R&D Systems Catalog No 1057-TK; 12 amino terminal EGF domains of rat Notch-1 fused to the Fc region of human IgG
For B1, the “effect of added soluble protein on the IL-10 enhancement by bead-immobilised Delta1” value was “inhibited”.
